Measurements taken from CN111234012A (UNIV TSINGHUA, dated 2020).

Legend:
[1] = molecular target: HBV病毒 (HepAD38细胞上清制备的HBV病毒液); assay: cell-based or functional assay
[2] = molecular target: T1, HBs抗原 (GENBANK ACCESSION NO: P30019.1) (乙肝病毒 (hepatitis B virus), UniProt P30019 1-226); assay: ELISA, HBs antigen coated at 50 ng per well, anti-human IgG-HRP, OD450
T1 construct: Coating antigen of the ELISA (50 ng per well); also called 乙肝病毒小膜蛋白HBs; 乙肝表面抗原
T1 sequence (P30019 whole entry, one chain of several): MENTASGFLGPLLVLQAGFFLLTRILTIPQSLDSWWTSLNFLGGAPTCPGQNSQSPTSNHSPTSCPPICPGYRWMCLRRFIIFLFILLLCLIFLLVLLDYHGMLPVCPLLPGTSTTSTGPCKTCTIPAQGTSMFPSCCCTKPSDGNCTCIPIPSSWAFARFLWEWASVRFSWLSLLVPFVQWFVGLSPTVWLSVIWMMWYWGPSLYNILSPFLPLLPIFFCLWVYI

B1: 单克隆抗体B432 (antibody, V domains shown)
VH: VQLVQSGGGVVQPGGSLRLSCAASGFIFGDYAMYWVRQAPGKGLEWVSFIGADGATIYYADSVTGRFTISRDNSKNSLFLQMNSLRTEDTAFYYCAKEMGVRDRYYYYAIDVWGQGTTVTVSS
VL: EIVLTQSPGTLSLSPGERASLSCRASQSVGGYLAWYQQTPGQAPRLLIYHSSTRATGIPARFSGSGSGTDFTLTISRLEPEDFAVYYCQQRTKWPLTFGGGTKVEIKR
notes: also called B432抗体
[1]
  HBV neutralisation on HepG2-NTCP cells, HBeAg in supernatant (IC50): 0.025 µg/mL
[2]
  binding result: binds
